Paper PMC3866529

Experiments:
Cys = conditions: cited from earlier work
Cys27 = test: chemical modification
Cys37 = test: chemical modification; conditions: Pre-incubation temperature not stated; the HED activity assay was run at 25°C; not stated (100 mM buffer); 100 mM sodium citrate or phosphate buffers; DTT-reduced WT protein, no ligand
Cys22 [1] = target: Cys22 (UniProt position 23, FIKPTCPFSRK); conditions: cited from earlier work
Cys31 = test: chemical modification; conditions: Pre-incubation temperature not stated; the HED activity assay was run at 25°C; not stated (100 mM buffer); 100 mM sodium citrate or phosphate buffers; DTT-reduced WT protein, no ligand
Cys22 [2] = target: Cys22 (UniProt position 23, FIKPTCPYCRR); conditions: cited from earlier work
Cys23 = test: chemical modification; conditions: Pre-incubation temperature not stated; the HED activity assay was run at 25°C; not stated (100 mM buffer); 100 mM sodium citrate or phosphate buffers; DTT-reduced WT protein, no ligand
Cys22 [3] = target: Cys22 (UniProt position 23, FIKPTCPFCRK); conditions: cited from earlier work
Cys22 [4] = target: Cys22 (UniProt position 23, FIKPTCPFARK); conditions: cited from earlier work

For “Glutaredoxin 1 (ScGrx1) (Saccharomyces cerevisiae)”, the pKa (Cys) is given as 3.2 to 4.0 ± 0.2.

In the case of Glutaredoxin 2 (HsGrx2) (Homo sapiens), the pKa (Cys) is given as 4.6.

In the case of “Glutaredoxin C4 (PtGrxC4) (Populus sp. (poplar; 'Pt' prefix, species not spelled out in the article))”, the pKa (Cys27; Pre-incubation temperature not stated, the HED activity assay was run at 25°C, not stated (100 mM buffer), 100 mM sodium citrate or phosphate buffers, DTT-reduced WT protein, no ligand) is reported as 4.6 ± 0.1.

In the case of “Glutaredoxin S12 (PtGrxS12) (Populus sp. (poplar))”, the pKa (Cys27; cited from earlier work) is given as 3.9.

For “Glutaredoxin 1 (CrGrx1) (Chlamydomonas reinhardtii)”, the pKa (Cys) is listed as 3.9 ± 0.1.

In the case of “Glutaredoxin C3 (PtGrxC3) (Populus sp. (poplar; 'Pt' prefix, species not spelled out in the article))”, the pKa (Cys37) is reported as 4.6 ± 0.1.

In the case of “Glutaredoxin (pig liver thioltransferase) C25S (Sus scrofa; C25S)”, the pKa (Cys22 [1]) is given as 4.9.

In the case of “Glutaredoxin C1 (PtGrxC1) (Populus sp. (poplar; 'Pt' prefix, species not spelled out in the article))”, the pKa (Cys31) is reported as 5.3 ± 0.1.

In the case of “Glutaredoxin 1 (HsGrx1, thioltransferase) (Homo sapiens)”, the pKa (Cys22 [2]) is listed as 3.6.

For “Glutaredoxin 2 (ScGrx2) (Saccharomyces cerevisiae)”, the pKa (Cys) is listed as 3.1 to 3.5 ± 0.2.

Substance “Glutaredoxin C2 (PtGrxC2) (Populus sp. (poplar; 'Pt' prefix, species not spelled out in the article))” has a pKa (Cys23) of 5.0 ± 0.1.

For “Glutaredoxin (pig liver thioltransferase) (Sus scrofa)”, the pKa (Cys22 [3]) is listed as 3.8.

In the case of “Glutaredoxin (pig liver thioltransferase) C25A (Sus scrofa; C25A)”, the pKa (Cys22 [4]) is given as 5.9.

For “Glutaredoxin 2 (CrGrx2) (Chlamydomonas reinhardtii)”, the pKa (Cys) is listed as 4.8 ± 0.1.
